Source: patent publication US20090016967A1

Molecular target: IGF-1 receptor (IGF-1R) on primary mouse lung fibroblasts / in mouse lung (mouse) (UniProt Q60751)
Experiment: cell-based or functional assay

Chain of IGF-1 receptor (IGF-1R) on primary mouse lung fibroblasts / in mouse lung (mouse) (Q60751 31-1373): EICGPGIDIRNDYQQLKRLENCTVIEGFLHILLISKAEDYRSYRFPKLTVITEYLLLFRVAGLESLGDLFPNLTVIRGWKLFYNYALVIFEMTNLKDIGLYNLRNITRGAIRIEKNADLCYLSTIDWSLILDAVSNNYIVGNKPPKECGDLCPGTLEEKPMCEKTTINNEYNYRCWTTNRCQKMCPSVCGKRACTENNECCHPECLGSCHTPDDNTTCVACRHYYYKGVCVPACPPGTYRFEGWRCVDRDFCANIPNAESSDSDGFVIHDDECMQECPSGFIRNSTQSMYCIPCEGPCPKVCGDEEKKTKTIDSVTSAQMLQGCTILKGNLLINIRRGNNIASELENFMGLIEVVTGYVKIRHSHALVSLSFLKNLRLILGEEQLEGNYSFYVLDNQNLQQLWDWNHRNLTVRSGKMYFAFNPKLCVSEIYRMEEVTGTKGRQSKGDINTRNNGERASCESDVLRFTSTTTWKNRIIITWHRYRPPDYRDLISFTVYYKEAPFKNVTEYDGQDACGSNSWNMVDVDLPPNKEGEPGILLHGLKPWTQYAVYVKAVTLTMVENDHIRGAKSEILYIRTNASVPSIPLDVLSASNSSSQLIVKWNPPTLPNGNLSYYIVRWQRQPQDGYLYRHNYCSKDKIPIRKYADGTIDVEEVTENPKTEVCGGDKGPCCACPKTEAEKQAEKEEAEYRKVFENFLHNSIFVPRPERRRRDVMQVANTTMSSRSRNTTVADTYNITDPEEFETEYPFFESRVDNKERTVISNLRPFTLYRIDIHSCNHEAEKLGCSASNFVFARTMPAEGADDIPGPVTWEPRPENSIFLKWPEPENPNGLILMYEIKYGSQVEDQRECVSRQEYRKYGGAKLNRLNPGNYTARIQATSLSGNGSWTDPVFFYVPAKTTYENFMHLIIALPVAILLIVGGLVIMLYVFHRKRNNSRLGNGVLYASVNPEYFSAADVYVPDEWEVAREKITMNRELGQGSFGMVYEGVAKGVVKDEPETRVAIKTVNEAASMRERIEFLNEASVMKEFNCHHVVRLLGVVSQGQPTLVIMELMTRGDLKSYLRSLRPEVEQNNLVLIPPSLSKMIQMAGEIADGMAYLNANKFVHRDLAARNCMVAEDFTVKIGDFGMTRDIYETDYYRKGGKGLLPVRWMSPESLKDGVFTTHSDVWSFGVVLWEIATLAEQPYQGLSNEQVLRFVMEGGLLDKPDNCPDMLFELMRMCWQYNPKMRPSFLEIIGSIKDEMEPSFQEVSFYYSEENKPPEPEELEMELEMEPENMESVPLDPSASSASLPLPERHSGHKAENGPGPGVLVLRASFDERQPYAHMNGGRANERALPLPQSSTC

migration of mouse lung fibroblasts (transwell): 1.8 fold
Substance: IGF-1 (R&D Systems) (ligand)
